Data from US20210252159A1, “CONJUGATES OF CARTILAGE-HOMING PEPTIDES” (priority 2018, published 2021).
Positions of bridges follow the written chain, without caps; N, C: chain ends. Residues, ends and D or L forms follow the SMILES beside them. *: point of attachment. X1 = CC(CCC(C)C(=O)*)C(=O)OCC(=O)[C@@]1(O)[C@H](C)C[C@H]2[C@@H]3CCC4=CC(=O)C=C[C@]4(C)[C@@]3(F)[C@@H](O)C[C@@]21C

What was measured:
[1] = system: CIA rats
Experimental: Arthritis was induced in 9-week-old female Lewis rats (Envigo or Charles River Laboratories) by intradermal injection while anesthetized of 400 ug bovine type II collagen (Chondrex Inc, Redmond Wash.) in 2 adjacent 200 ul (1 mg/ml) doses on day 0. Collagen is prepared for injection by dissolving at 2 mg/ml in 0.01N glacial acetic acid in sterile water and rocking at 4° C. overnight then emulsifying in Freund's incomplete adjuvant (IFA, Sigma Aldrich). To emulsify, equal volumes of collagen solution and IFA are drawn up into separate syringes, which are joined by a 3-way stopcock. While on ice, the collagen and IFA are mixed by pressing between the two syringes rapidly for 10 minutes. Quality of the emulsification is tested after 10 minutes of mixing by dropping a small amount of mixture in water. A properly emulsified solution will remain as a discrete droplet and not disperse in the water. On day 7, rats are challenged with a second intradermal injection of 100 ug of collagen in 100 ul, 1 mg/ml, collagen in IFA solution prepared fresh. Body weight and ankle diameter measurements are recorded daily from day 7 through the end of the study. Ankle diameter was measure by a single researcher using a Fowler Digitrix 2 micrometer. Three measurements of each ankle were taken of the lateral dimension at the tarsus of lightly anesthetized rats. The reported ankle diameter measurement is the mean of the three measurements.
Arthritis was induced as described in four cohorts of 9-week-old female Lewis rats. Rats were randomly placed in treatment groups, balancing compound and dose groups across cohorts. […] Rats were dosed by tail vein injection on days 11 and 12 and euthanized on day 13 by CO2 asphyxiation. Immediately after cessation of respiratory movement, blood was collected by cardiac puncture, synovial fluid was collected from both knees, one hind limb was fixed in formalin and the alternate ankle was frozen on dry ice. Thymus, spleen, liver, and kidney weights were recorded.
CIA Response study design.
The aim of the study was to test the 4 conjugates with various linkers at two different doses in vivo in CIA rats to assess the following: ability to deliver sufficient dexamethasone to the joint to show functionality and potential therapeutic effect in the disease model.
CIA was induced in female Lewis rats (as described above, see EXAMPLE 21). Body weight and ankle joint diameters were measured on day 0 and then daily from day 7 until euthanasia. […] At euthanasia, synovial fluid was collected from both knees, one hind limb was fixed in formalin and the alternate ankle was frozen on dry ice. Thymus, spleen, liver, and kidney weights were recorded. Blood samples were submitted for CBC/Chemistry analysis, and the remaining plasma was frozen.

[2] = Hydrolysis assay of peptide-drug conjugates in human plasma (free Dex by LC/MS); format: in vitro ADME; conditions: 37° C., release of free Dex, time points to 32 hr, read-out: Half-life (hours) as measured in the hydrolysis experiments (converted)
Experimental: In order to determine hydrolysis rates, conjugates can be diluted in PBS, rat plasma, or human plasma and incubated at 37 degrees. Samples can be taken at designated time-points (e.g., 1, 2, 3, 5, 10, 15, 20, 25, 30, 45, 60, or 90 minutes and/or hours after administration). Internal standards such as triamcinolone acetonide (TAA) can be added as an internal standard, and then active agent/TAA can be extracted using acetonitrile, for example. The samples can be dried down, reconstituted, and analyzed by LC/MS. Data can be normalized using Dex AUC/TAA AUC. Percent hydrolysis can be calculated using the average ratio for active agent AUC/TAA AUC at a time point of maximal drug release. A general method can include using a lyophilized, purified peptide-drug conjugates reconstituted in DMSO following production to generate stock solution at 20 mg/mL. Each conjugate stock can be brought to 0.25 mg/mL in each hydrolysis condition (1×DPBS, human plasma and rat plasma) in triplicate and rocked at 37° C. To quantitate free active agent, 100 μl of the hydrolyzed conjugate solution can be transferred into 1 mL acetonitrile at 4° C. at which time all plasma proteins and intact conjugates can precipitate. This can be performed repeatedly to generate a series of time points (0 hr, 0.5 hr, 1 hr, 2 hr, 4 hr, 6 hr, 8 hr, 24 hr, 32 hr). The acetonitrile solution can be spun at 17,000 g for 5 minutes, and the supernatant removed and added to a 96 well block. The pellet can then be resuspended in 500 μl acetonitrile and re-pelleted as before. The supernatant can be removed and added to the same well in the block. Samples can be prepared for analysis by drying under a nitrogen stream followed by reconstitution in 110 μl 45:55 ACN:Citrate 10 mM pH 5.5. […] Quantification of free active agent (or drug) can be achieved through integration of active agent peaks of the TIC. […]
To quantitate free dexamethasone (Dex), 100 μl of the hydrolyzed conjugate solution was transferred into 1 mL acetonitrile at 4° C. at which time all plasma proteins and intact conjugates precipitated. […]

SMILES: CC[C@H](C)[C@@H]1NC(=O)[C@@H]2CSSC[C@H](NC(=O)[C@H](CCCNC(=N)N)NC(=O)[C@@H](NC(=O)[C@H](CC(N)=O)NC(=O)[C@@H](NC(=O)[C@@H]3CCCN3C(=O)[C@@H](NC(=O)CNC(=O)[C@H](CO)NC(=O)CNC(=O)C(C)CCC(C)C(=O)OCC(=O)[C@@]3(O)[C@H](C)C[C@H]4[C@@H]5CCC6=CC(=O)C=C[C@]6(C)[C@@]5(F)[C@@H](O)C[C@@]43C)C(C)C)[C@@H](C)CC)C(C)C)C(=O)N[C@@H](CCCNC(=N)N)C(=O)NCC(=O)N[C@@H](CO)C(=O)N[C@@H](CCCNC(=N)N)C(=O)N[C@@H](CC(=O)O)C(=O)N[C@H]3CSSC[C@H](NC(=O)[C@H](CCCNC(=N)N)NC(=O)[C@H](CO)NC(=O)[C@H](CC(N)=O)NC1=O)C(=O)N[C@@H](Cc1c[nH]cn1)C(=O)N[C@H](C(=O)N[C@H](C(=O)N1CCC[C@H]1C(=O)O)[C@@H](C)O)CSSC[C@H](NC(=O)[C@@H]1CCCN1C(=O)[C@H](CC(=O)O)NC(=O)[C@H](CC(C)C)NC3=O)C(=O)N[C@@H](CCCNC(=N)N)C(=O)N[C@@H](CCCNC(=N)N)C(=O)N[C@@H](C)C(=O)NCC(=O)N[C@@H](CCSC)C(=O)N[C@@H](CCCNC(=N)N)C(=O)N[C@@H](Cc1ccccc1)C(=O)NCC(=O)N[C@@H](CCCNC(=N)N)C(=O)N2 (some centres unmarked) [Compound 27, peptide(SEQ ID NO: 105)-[dimethyladipic acid]-Dex] (X1-GSGVPINVRCRGSRDCLDPCRRAGMRFGRCINSRCHCTP-OH; disulfide 10-30, 16-35, 20-37 (inferred); C-terminus assumed)
- ankle swelling over time as compared to vehicle ([1]; 0.2 mg/kg and 0.5 mg/kg Dex equivalents IV days 11 and 12): reduction in ankle swelling
- spleen weight ([1]; 0.2 mg/kg and 0.5 mg/kg dose): reduction
- thymus weight ([1]; 0.2 mg/kg and 0.5 mg/kg dose): reduction
- total body weight ([1]; 0.2 mg/kg and 0.5 mg/kg dose): reduction
- change in median ankle diameter between day 11 and day 13 as compared to vehicle ([1]; 0.2 mg/kg dose): statistically significant reduction in ankle diameter
- difference from Dex in change in ankle diameter ([1]; 0.2 mg/kg dose): no statistically significant difference
- mortality and tolerability ([1]; 1 mg/kg Dex equivalents IV, some rats): died overnight
- half-life at 0.25 mg/mL [2]: 22.4 h
